Target: T1, ubiquitin (S. pombe (endogenous in S. pombe), UniProt P0CG72 1-76)
T1 construct: ubiquitin of S. pombe, the cut product of the ubiquitin precursors; precipitated with an anti-ubiquitin polyclonal antibody; The ubiquitin may be free, in chains or covalently conjugated; source: endogenous, S. pombe lysate
Assay: co-IP; S. pombe extract (Buffer A: 50mM Hepes-KOH pH 7.5, 5mM MgAc, 100mM KAc, 0.1% NP40, 1mM DTT, 0.5mg/ml BSA) precipitated with anti-ubiquitin rabbit polyclonal antibody overnight at 4°C, then A/G magnetic beads; blot with anti-HA (Cts1-flag-3HA, with MG132) or anti-GFP (Cts1-YFP strains; also in mug30Δ and ubr11Δ backgrounds); IP signal normalised over input
Settings: partners not purified

T1 sequence (P0CG72 1-76): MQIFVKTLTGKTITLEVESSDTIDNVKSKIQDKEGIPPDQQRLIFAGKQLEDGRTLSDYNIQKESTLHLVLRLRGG

fold reduction of the co-IP signal against Cts1-YFP: 6.2 fold
B1: Cts1-YFP K430R (enzyme, S. pombe, UniProt O42644 1-600, looked up)
chain: MKYVLVSGGVISGIGKGVIASSTGLLLKTLGLKVTSIKIDPYMNIDAGTMSPLEHGEVFVLNDGGEVDLDLGNYERYLNVTLTHDNNITTGKVYSNVIQKERRGDYLGKTVQIVPHVTNEIQDWVERVARIPVDQSGEEPDVCIVELGGTVGDIESAAFVEAMRQFQFRVGHENFVSIHVSLVPVINGEQKTKPTQQAIRDLRSLGITPDLIACRCKQPLEKSVIDKISLFCHVGPEQVLAVHDVSSTYHVPQLLEDKLLEYLKIRFALDKISVSRELALAGENMWSSWKHLTQGYDHLFKKVTIVLVGKYTHLQDSYISVIKALEHSAMRCGRKLDLQWVEASHLEASTNTSDPLSYHKAWHLVCSANGILVPGGFGSRGVEGMIAAAKWARENNTPYLGICLGMQVAVIEFARSVCGIEGAFSEEFDRECENNVVVYMPEIDKDKLGGTMRLGLRPTFFQPNSEWSKLRKLHKMVDEVLERHRHRYEINPAFVSRLEQGGISFIGKDERGERMEIIEKRDHPYFVGVQYHPEYLSKPLKPSPPIFGLVAASAGLLDEFIQSGEEVEWSNFSHFNAESALADMNDSVEVTEEATVVTIS
notes: CTP synthase (Cts1) of Schizosaccharomyces pombe with the point mutation K430R, fused to YFP; source: S. pombe K430R strain in a Cts1-YFP background, in cell lysate
